13 sequences from a protein production outcome set (Wang et al. 2014) can be followed below.

A short description of the data set: label from the status in PepcDB records.
In the case of “MPIDEWLVLNRIGIFENPSLRRYVSPFPPPELMGITSGLQSETGFAAHGADIYAALALASTIPITEYRHILDFGCGCGRLARMLKGHPHKISGCDIDLRHVKWIGQSLDFMNVKLSSVRPPIPFADDEMDAVISVSIFTHLTENSQDDFLAELFRVTRPGGTLFLTVHGAQALKRACHEQPIRHMLDMDEGRFRKAQQAFNQNKHGFVLQFGHLTTKPEKAFYTPRAIFRRIRDSFSRKTINMPFEYGIAFHPESYIREHWSKWFDILDYRHGAIHQFQDIVVLSPKK”, the protein production entry is given as “failed”.
In the case of “MKTIRAILNGKKAGNPELRDAIMKMRDRGVDVQVRVTWESQDMPRLVKEAVTDGIERIVVAGGDGTVNEAASALIHIDHESRPELAIIPLGTANDFATANHIPDSIADALTLAVEGQALSVDCVKANDRCFINVAAAGFGAEVTAETPVELKNFLGGGAYTLTGVVKALGFKPYDGSITIEGGRYDGEMLLGAFCNSRLAGGGQQLAPNAMIDDGLMDLTLVRPFLPHELPKVIEEINNPSEKGEFVKHTRASWLEIDFPNPLPLNLDGEPYHSRKIRFEVQPKSLKLVLPKDCPCVTH” it was “failed”; in that of “MPRSTWFKALLLLVALWAPLSQAETGWQPIQETIRKSDKDNRQYQAIRLDNGMVVLLVSDPQAVKSLSALVVPVGSLEDPEAYQGLAHYLEHMSLMGSKKYPQADSLAEYLKMHGGSHNASTAPYRTAFYLEVENDALPGAVDRLADAIAEPLLDKKYAERERNAVNAELTMARTRDGMRMAQVSAETINPAHPGSKFSGGNLETLSDKPGNPVQQALKDFHEKYYSANLMKAVIYSNKPLPELAKMAADTFGRVPNKESKKPEITVPVVTDAQKGIIIHYVPALPRKVLRVEFRIDNNSAKFRSKTDELITYLIGNRSPGTLSDWLQKQGLVEGISANSDPIVNGNSGVLAISASLTDKGLANRDQVVAAIFSYLNLLREKGIDKQYFDELANVLDIDFRYPSITRDMDYVEWLADTMIRVPVEHTLDAVNIADRYDAKAVKERLAMMTPQNARIWYISPKEPHNKTAYFVDAPYQVDKISAQTFADWQKKAADIALSLPELNPYIPDDFSLIKSEKKYDHPELIVDESNLRVVYAPSRYFASEPKADVSLILRNPKAMDSARNQVMFALNDYLAGLALDQLSNQASVGGISFSTNANNGLMVNANGYTQRLPQLFQALLEGYFSYTATEDQLEQAKSWYNQMMDSAEKGKAFEQAIMPAQMLSQVPYFSRDERRKILPSITLKEVLAYRDALKSGARPEFMVIGNMTEAQATTLARDVQKQLGADGSEWCRNKDVVVDKKQSVIFEKAGNSTDSALAAVFVPTGYDEYTSSAYSSLLGQIVQPWFYNQLRTEEQLGYAVFAFPMSVGRQWGMGFLLQSNDKQPSFLWERYKAFFPTAEAKLRAMKPDEFAQIQQAVITQMLQAPQTLGEEASKLSKDFDRGNMRFDSRDKIVAQIKLLTPQKLADFFHQAVVEPQGMAILSQISGSQNGKAEYVHPEGWKVWENVSALQQTMPLMSEKNE”, “not failed”; in that of “MAPLRTKAVEVLQRNSRGAFTVPAHGLYPYQWLWDSAFIALGWTQVDWERAWQELLCLFDYGQGPDGMLPHIVFHEQSRDYFPGPDVWGREARAQPATSGITQPPVVATVVRYLYEKDPDRDRARERARYLFPKLLAFHRWLYHARDPYRTGLVVIVHPWESGMDNSPAWDKPLSRVPVENLPPYERRDVKHVNPEERPRKEDYDRYLSLLYLFRRLEYDPREIYRQSPFKVVDVGFNAILQRANRDLYALAVLLQEDPYEIEEWIVRGEVGLEALWDREAGFYFSWDLVAGEPIAVKTSAGFLPLFAGTPHQGRASLLAQEAERWGEKARYLLPSVDPTSPFFEPGRYWRGPVWINVNWMVAEGFRDYGFAALAARLKADALALMEREGFREYYDPLTGQGRGGEGFSWSAALALFWTR”, “not failed”.
In the case of “MRSIAMQAADLYVLQTAQSWLDAGQAAVLLTVARTWGSSPRPPGAMMAIRADGAVAGSVSGGCIEDDLIDQIRQRGIAALCPGARPALATYGVDGEQARRFGLPCGGTLQLVLEPLGAHSRLADLLARLRAHQTVRRSVRLADGAVTLEPAAADAEPRLDGAGFASVLGPRHRLLVVGAGQLSRYLCEMAIALDFDVTVSDPRQEYRAGWQVEGVALTTAMPDDMVIAARPDARTAVIALTHDPKLDDLALIDALQTPAFYVGALGSRANHARRVARLREHFGLTPAQLARLRGPAGIYIGSRTPPEIALSIMAEIVAGKNGAPLPPAASVAAGKARQPGGAGVIQAGLCATL” it was “failed”; in that of “MILMSNEIKNPKKRRKLVEYANGRSLEEINGTVKVPKNIGFWKALFMYSGPGALVAVGYMDPGNWSTSITGGQNFQYMLMSIILISSLIAMLLQYMAAKLGIVSQMDLAQAIRARTSKSLGIVLWILTELAIMATDIAEVIGAAIALYLLFHIPLAIAVFITVLDVLLLLLLTKIGFRKIEAIVVCLIMVILVVFVYQVALSNPNWGAVFSGLVPTTKAFETSPTIGGMTPLSGSLGIIGATVMPHNLYLHSAVSQTREIDHNDEEDVARTLRFSTWDSNIQLSFAFIVNSLLLVMGVAVFKSGAVQDPSFFGLFHALNDTSTLSNGILIGVAKTGVLSTLFAVALLASGQNSTITGTLTGQVIMEGFIHMRMPLWARRLITRLISVVPVLICVMITSGKGDLQEHEALNQLMNNSQVFLAFALPFSMIPLLMMTDSRVEMGDRFKNSWAVKILGWISVIFLTYLNMTGLPNSITAFFGANPSAGEVELAHIIAYMLVAVVLALLAWTVFELHKGNQRYELEMRSKAEAKEEA”, “failed”.
“MNPLDLIAKRAYPYETEKRDKTYLALNENPFPFPEDLVDEVFRRLNSDALRIYYDSPDEELIEKILSYLDTDFLSKNNVSVGNGADEIIYVMMLMFDRSVFFPPTYSCYRIFAKAVGAKFLEVPLTKDLRIPEVNVGEGDVVFIPNPNNPTGHVFEREEIERILKTGAFVALDEAYYEFHGESYVDFLKKYENLAVIRTFSKAFSLAAQRVGYVVASEKFIDAYNRVRLPFNVSYVSQMFAKVALDHREIFEERTKFIVEERERMKSALREMGYRITDSRGNFVFVFMEKEEKERLLEHLRTKNVAVRSFREGVRITIGKREENDMILRELEVFK”: the protein production result is recorded as “not failed”.
Next, “MSLETRARNSTRPASGLIDWEQARQAALRLSQWEQAPVDNRAFRREQYARMVALSEPLIADYLGVRLPEPVSRIFVFDRREWLEANIVSFSQLFRPIEEMYEKNGGGRGALGVLMNDVSSKLLGVQIGGLLGYLAQRVLGQYDLSLLSAEATGGSLYFVEPNIARVQQQLGLSDEDFRLWITLHEMTHAFEFEAYPWVRTYFRELLEQNFALVSGQMLSSGNSLVDMLMRLLQGIGSGQHWIETVLTPEQRAVFDRIQALMSLIEGYGNHVMNAVGRRLLPSFNQIEQQIAQRQRQRTMLDQMVFRLTGLDLKLAQYQQGEAFVNAVVAARGIQFASRVWERPENLPSMDEIRNPGQWIVRMDREGHHHHHH”: “not failed”; “MGRVYLVGAGPGDPELLTLKAYRLLKEAPVVLYDRLVDERVLALAPGEKVYVGKEEGESEKQEEIHRLLLRHARAHPFVVRLKGGDPMVFGRGGEEVLFLLRHGVPVEVVPGVTSLLASGLPLTHRGLAHGFAAVSGVLEGGGYPDLRPFARVPTLVVLMGVGRRVWIAKELLRLGRDPREPTLFVERASTPKERRVHARLEEVAEGKVEVRPPALWILGEVVRVFAEKEAPVDALALGG”: “not failed”; “VSDRPAGRMPLTVHRNVGRWLSEILHASIRDTGVSSRIEFVRRTLHGWVREEYSETELPNAVYRNLYFPVLDAQPAHAGSGKIETISECDRLKNLVRNVTDTLVENYPQGLESEALLIALDGVKLELARIRKDIEMYGDPRKR”: “not failed”.
In the case of “SKSNKIFVGGIPHNCGETELREYFKKFGVVTEVVMIYDAEKQRPRGFGFITFEDEQSVDQAVNMHFHDIMGKKVEVKRAEPRDSKS” it was “not failed”; in that of “MERIETIPTDKEHLSQDEVIRLASTPCSAPALKRAFLFSCLTALRKSDIKKLTWEEIQPYGSDGVMYVTTRMQKTKDIVHNPISEEALELIGYSPDKRGKVFPDFKDSMTQAPLKNWLKDAGITKHISYHCSRHSFACLQLDAGTSIAVVQRYLGHKNVATTEVYAKISDAQKRASVGLEHHHHHH”, “not failed”.
In the case of “SARFALTVVRHGETRFNKEKIIQGQGVDEPLSETGFKQAAAAGIFLNNVKFTHAFSSDLMRTKQTMHGILERSKFCKDMTVKYDSRLRERKYGVVEGKALSELRAMAKAAREECPVFTPPGGETLDQVKMRGIDFFEFLCQLILKEADQKEQFSQGSPSNCLETSLAEIFPLGKNHSSKVNSDSGIPGLAASVLVVSHGAYMRSLFDYFLTDLKCSLPATLSRSELMSVTPNTGMSLFIINFEEGREVKPTVQCICMNLQDHLNGLTETR” it was “not failed”.
